Data from patent US20150353909A1 (ACADEMIA SINICA, published 2015).

B1: GST-OTU7a (enzyme)
chain: MAKTKQQKSKPKKQPHQKQGKDCDLSQFRAQLDALGLKIIQVTADGNCFFRAIADQLEGNEDEHNKYRNMIVLYIVKNREMFEPFIEDDVPFEDYCKTMDDDGTWAGNMELQAASLVTRSNICIHRNMSPRWYIRNFEDTRTRMIHLSYHDGEHYNSVRSKEDACGGPARPVVIEADAKVSAASKQAKATESKSKNKADKCHVNAGAIKVVMSGSCCDNTEKAEQVLLQVNGDVDAAIEFLIADQGMESLTENDTETASASDTINPKHASDSPMENTEQAREELIEEESASGNNSETVQAKCTTQTDDKKIPRNKTCPCGSKKKYKSCCGTATGRSSVKLLVSQTMESKKGRKNLRRGTSNEVEANAPDVGALCI
notes: Full-length coding region in pET42, expressed in E. coli; also called OTU7a (GST fusion); not shown: GST and His tags from pET42 vector
B2: GST-OTU9 (enzyme)
chain: MGYEPDPDALRWGLHDLEVCTLTNAGSCSSVTRYESGGGGTQGYVREGYNQPVTGYVDNDAVIAQFYQDELSRVARAEASGINSLSPTSVVAQDWPHPHQGQENQGEAIDITQESDILHNHNGNMEDKNVARIRFEGGQSSPSRDDDSVCSVEIEEESWSEVGKRLNQMIPIAHVPKINGELPSEDEQISDHERLFQRLQLYGLVENKIEGDGNCQFRSLSDQLYRSPEHHNFVREQVVNQLAYNREIYEGYVPMAYNDYLKAMKRNGEWGDHVTLQAAADLFGVRMFVITSFKDTCYIEILPHFQKSNRLICLSFWAEVHYNSIYPEGELPIPEGKKKKKYWVF
notes: Full-length coding region in pET42, expressed in E. coli; also called OTU9 (GST fusion); not shown: GST and His tags from pET42 vector
B3: GST-OTU10 (enzyme)
chain: MVSHEENTSIVEWFLGPHPYTYPPYGIEMIHEDDEVAVAHHHHHHQSGEYYREYEDHRSSDVDNDEIIARTLQDDFLQLEIAESNDYSHQNQQQQHQQEGYTNNYSNNNNGYAWNDQSPAVDYSSEWIGNDNDQDGRSDDSVNVFSCSSPSDTDEYVYSWESDQCDADGEFGRRLNQMVPIPYIPKINGEIPPEEEAVSDHERLRNRLEMFDFTEVKVPGDGNCQFRALADQLYKTADRHKHVRRQIVKQLKSRPDSYQGYVPMDFSDYLRKMSRSGEWGDHVTLQAAADAYRVKIVVLTSFKDTCYIEILPTSQESKGVIFLSFWAEVHYNAIYLNRDTSETELQRKRKWWRFGN
notes: also called OTU10 (GST tag); not shown: GST and His tags from pET42 vector
B4: GST-OTU3 (enzyme)
chain: MELKSSSNNNILEQLRNGFARFELVSSPTASVSDSISSTSLPASFISTTKGNSYVFFARINSSMNRSPAAKKVEKYAVDRVKGDGRCLFRALVKGMAFNKGITLNPQRERDDADELRMAVKEVICNDPKEREKYKEALVAITVDESLKRFCQRIGRHDFWGGESELLVLSKLCKQPIIVYIPEHEHGRGGGYGPGFIPIQEYGSEFRGGWGKGKTNKNVVRLLYSGRNHYDLLR
notes: Full-length coding region in pET42, expressed in E. coli; also called OTU3 (GST fusion); not shown: GST and His tags from pET42 vector
B5: GST-OTU4c (enzyme)
chain: MMICYSPITTCSRNAISIKRHLGSRLYGVVAHGSSKFSCYSLLSGLSRRHYTGFRVSVSNRPSSWHDKGLFGFAYTGVIVSLLVCYSSTSQSAYADSSRDKDANNVHHHSSDGKFHNGKRVYTDYSIIGIPGDGRCLFRSVAHGFCLRSGKLAPGEKMQRELADELRTRVADEFIQRRQETEWFVEGDFDTYVRQIRDPHVWGGEPELFMASHVLQMPITVYMKDDKAGGLISIAEYGQEYGKDDPIRVLYHGFGHYDALLLHESKASIPKSKL
notes: Full-length coding region in pET42, expressed in E. coli; also called OTU4c (GST tag); not shown: GST and His tags from pET42 vector

Molecular target: T1, Lys48-linked UB chains (Ub2-7) (UniProt P0CG48 1-76, isopeptide bond between the C-terminus of the distal UB and Lys48 of the proximal UB)
T1 construct: Bought mixture of chain lengths Ub2-7; also called K48-linked UB chains; K48-linked ubiquitin chains
Assay: GST pull-down, immunoblot
Description: (§1) The GST pull-down assay and the detection of pulled-down products by immunoblotting has been previously described (Fatimababy et al., (2010) FEBS J. 277, 796-816; Lin et al., (2011) Plant Cell 23, 2754-2773). The Lys48- and Lys63-linked UB chains (Ub2-7) were purchased from Boston Biochem.

Binding result, no binding:
B1
B2
B3
B4
B5

Molecular target: T2, Lys63-linked UB chains (Ub2-7) (UniProt P0CG48 1-76, isopeptide bond between the C-terminus of the distal UB and Lys63 of the proximal UB)
T2 construct: Bought mixture of chain lengths Ub2-7; also called K63-linked UB chains; K63-linked ubiquitin chains
Assay: GST pull-down, immunoblot
Description: as §1

Binding result, no binding:
B1
B2
B3
B4
B5
